In patent publication US20210214447A1 (SHANGHAI INSTITUTE OF MATERIA MEDICA CHINESE ACADEMY OF …, published 2021):
Residue numbers refer to the chain shown, from its start.

B1: Hu002-3 (antibody, V domains shown)
VH: QVQLVQSGAEVKKPGASVKVSCKASGYPFTDFYINWVKQAPGQGLEWIGWIYPGSGNTKYNEKFKGRVTLTVDTSISTAYMELSRLRSDDTAVYYCARSTGFFDYWGQGTLVTVSS
VL: EIVLTQSPATLSLSPGERATLSCSASSSIGYMYWYQQKPGQAPRLLIYLTSNLASGIPARFSGSGSGTDFTLTISSLEPEDFAVYYCQQWSSNPPTFGQGTKLEIK
notes: humanized from mAb002c; also called Hu002c-3
B2: Hu002-17 (antibody, V domains shown)
VH: B1 VH with K38R, I48M
VL: EIVLTQSPDFQSVTPKEKVTITCSASSSIGYMYWYQQKPDQSPKLLIYLTSNLASGVPSRFSGSGSGTDYTLTINSLEAEDAATYYCQQWSSNPPTFGQGTKLEIK
notes: humanized from mAb002c; also called Hu002c-17
B3: Hu002-9 (antibody, V domains shown)
VH: B1 VH
VL: B1 VL with A42S, L45S, F70Y
notes: humanized from mAb002c; also called Hu002c-9
B4: Hu002-6 (antibody, V domains shown)
VH: B1 VH
VL: B1 VL with F70Y
notes: humanized from mAb002c; also called Hu002c-6
B5: Hu002-8 (antibody, V domains shown)
VH: B1 VH with K38R, I48M
VL: B1 VL with A42S, L45S, F70Y
notes: humanized from mAb002c; also called Hu002c-8
B6: Hu002-12 (antibody, V domains shown)
VH: B1 VH
VL: B1 VL with E1Q, A42S, L45S, F70Y
notes: humanized from mAb002c; also called Hu002c-12
B7: Hu002-10 (antibody, V domains shown)
VH: B1 VH with K38R, I48M, L70M, V72R
VL: B1 VL with E1Q, A42S, L45S, F70Y
notes: humanized from mAb002c; also called Hu002c-10
B8: Hu002-11 (antibody, V domains shown)
VH: B1 VH with K38R, I48M
VL: B1 VL with E1Q, A42S, L45S, F70Y
notes: humanized from mAb002c; also called Hu002c-11
B9: Hu002-13 (antibody, V domains shown)
VH: B1 VH with K38R, I48M, L70M, V72R
VL: B2 VL with Y48K, Y70F
notes: humanized from mAb002c; also called Hu002c-13
B10: Hu002-7 (antibody, V domains shown)
VH: B1 VH with K38R, I48M, L70M, V72R
VL: B1 VL with A42S, L45S, F70Y
notes: humanized from mAb002c; also called Hu002c-7
B11: Hu002-14 (antibody, V domains shown)
VH: B1 VH with K38R, I48M
VL: B2 VL with Y48K, Y70F
notes: humanized from mAb002c; also called Hu002c-14
B12: Hu002-15 (antibody, V domains shown)
VH: B1 VH
VL: B2 VL with Y48K, Y70F
notes: humanized from mAb002c; also called Hu002c-15

Biological target: T1, human AXL on the surface of tumor cells (human, UniProt P30530 26-894)
T1 construct: whole, on cells; endogenous protein of human tumor cell lines; the cell line is named under assay or readout; also called AXL on the cell surface
T1 sequence (looked up): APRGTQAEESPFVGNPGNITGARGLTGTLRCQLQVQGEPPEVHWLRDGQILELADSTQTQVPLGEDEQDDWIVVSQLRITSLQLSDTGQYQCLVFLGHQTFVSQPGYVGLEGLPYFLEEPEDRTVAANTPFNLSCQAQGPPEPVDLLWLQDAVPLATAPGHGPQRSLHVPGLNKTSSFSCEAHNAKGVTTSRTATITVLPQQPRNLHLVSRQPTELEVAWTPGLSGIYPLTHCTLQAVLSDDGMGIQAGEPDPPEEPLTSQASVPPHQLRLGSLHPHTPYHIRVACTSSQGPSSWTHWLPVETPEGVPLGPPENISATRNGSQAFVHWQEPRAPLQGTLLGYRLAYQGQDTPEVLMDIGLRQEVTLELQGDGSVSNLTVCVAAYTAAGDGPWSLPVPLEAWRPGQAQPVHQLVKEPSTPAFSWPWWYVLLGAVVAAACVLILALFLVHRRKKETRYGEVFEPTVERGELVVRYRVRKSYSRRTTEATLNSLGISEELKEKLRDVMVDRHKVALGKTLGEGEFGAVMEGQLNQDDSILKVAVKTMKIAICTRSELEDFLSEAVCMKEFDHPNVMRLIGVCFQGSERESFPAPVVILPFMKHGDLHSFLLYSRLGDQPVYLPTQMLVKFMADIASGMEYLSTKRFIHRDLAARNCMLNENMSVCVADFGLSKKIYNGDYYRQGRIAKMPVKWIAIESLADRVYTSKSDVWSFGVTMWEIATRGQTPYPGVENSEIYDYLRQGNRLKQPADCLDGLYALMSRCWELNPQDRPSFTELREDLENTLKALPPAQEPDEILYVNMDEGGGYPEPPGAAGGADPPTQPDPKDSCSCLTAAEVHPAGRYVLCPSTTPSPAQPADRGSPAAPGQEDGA
Experiment: FACS on MDA-MB-231 cells
Method: Then the obtained solutions were incubated at 4° C. for 1 h, the cells were washed twice with PBS to remove unbound primary antibody, and then the target cells were incubated with 200 μL PE-labeled secondary antibody (2 μg/mL) at 4° C. for 30 min. The cells were washed twice with PBS to remove unbound secondary antibody. Finally, the cells were resuspended in 200 μL PBS, and the binding affinity of the test antibody to AXL on the cell surface was determined by a flow cytometer (FACSCalibur)
24 humanized antibodies in Table-6 were diluted by gradient, and their affinities to AXL, on the surface of MDA-MB-231 cells were determined by flow cytometer. The experimental method was referred to Example 8.

Row | Binder | EC50 [nM] | Highest MFI value (FACSCalibur) [MFI]
1 | B1 | 0.108 | 277
2 | B2 | 0.107 | 269
3 | B3 | 0.121 | 268
4 | B4 | 0.101 | 271
5 | B5 | 0.138 | 270
6 | B6 | 0.116 | 261
7 | B7 | 0.118 | 273
8 | B8 | 0.123 | 271
9 | B9 | 0.073 | 262
10 | B10 | 0.129 | 275
11 | B11 | 0.094 | 264
12 | B12 | 0.099 | 268

Biological target: T2, extracellular domain of human AXL protein (AXL-ECD) (human, UniProt P30530 31-449)
T2 construct: expressed in HEK293T cells; coated on the ELISA plate; also called AXL-ECD protein; human AXL extracellular domain protein
T2 sequence: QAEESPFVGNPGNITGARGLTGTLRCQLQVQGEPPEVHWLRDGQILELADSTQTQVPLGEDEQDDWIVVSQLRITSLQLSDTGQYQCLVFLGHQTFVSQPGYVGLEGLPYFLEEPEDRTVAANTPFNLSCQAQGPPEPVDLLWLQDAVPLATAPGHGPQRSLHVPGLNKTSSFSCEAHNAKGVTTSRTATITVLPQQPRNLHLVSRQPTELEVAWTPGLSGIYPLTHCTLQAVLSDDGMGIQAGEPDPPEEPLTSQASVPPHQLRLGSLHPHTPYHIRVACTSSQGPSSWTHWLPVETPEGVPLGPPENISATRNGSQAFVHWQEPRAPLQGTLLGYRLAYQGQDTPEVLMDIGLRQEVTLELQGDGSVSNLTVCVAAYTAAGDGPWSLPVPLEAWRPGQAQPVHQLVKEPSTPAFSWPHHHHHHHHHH
Experiment: ELISA, plate-coated AXL-ECD
Method: The extracellular domain of AXL protein (AXL-ECD) was diluted to […] with the coating solution, and coated onto ELISA plate with 100 μL/well at 4° C. overnight. The excess antigen was washed off. The plate was blocked with 1% BSA at room temperature for 2 h, then each monoclonal antibody in a 3-fold dilution was added at 100 µL/well. The plate was incubated at room temperature for 1 h; the unbound antibody was washed off, and appropriate concentration of anti-mouse secondary antibody labeled with horseradish peroxidase was added at 100 µL/well. The plate was incubated at room temperature for 0.5 h. The unbound secondary antibody was washed off. TMB Substrate was added and reacted for about 15 minutes. 1N HCL was added at 50 µL/well to stop the color reaction. Then the absorbance was measured at 450 nm and the obtained data was analyzed.
24 humanized antibodies in Table-6 were diluted by gradient, and their affinity to AXL-ECD protein was determined by ELISA. The experimental method was referred to Example 4.

Row | Binder | EC50 [nM] | TOP (OD450)
13 | B1 | 0.048 | 3.6
14 | B2 | 0.045 | 3.71
15 | B3 | 0.067 | 3.62
16 | B4 | 0.052 | 3.63
17 | B5 | 0.049 | 3.59
18 | B6 | 0.045 | 3.73
19 | B7 | 0.068 | 3.58
20 | B8 | 0.043 | 3.74
21 | B9 | 0.047 | 3.73
22 | B10 | 0.058 | 3.59
23 | B11 | 0.052 | 3.72
24 | B12 | 0.05 | 3.72
